{"source": "the supplement of paper PMC9112550", "about": "“Optimization of the antimicrobial peptide Bac7 by deep mutational scanning” (BMC Biology, 2022);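 also: peptides expressed intracellularly from a pBAD plasmid library in pooled LB shake-flask culture, induced with 0.3% L-arabinose, DNA abundance read by NGS, three biological replicates, DESeq2 with apeglm shrinkage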"}
{"system": "Escherichia coli TOP10", "assay": "shrunken log2 fold change of peptide-encoding DNA abundance (4.5 h post-induction vs induction); higher = less antimicrobial activity (less host growth inhibition)", "details": "time post-induction: 4.5 h; library: site-saturation at positions 5, 18, 19, 20"}
{"sequence": "RRIRWRPPRLPRPRPRPWYWPRP", "shrunken log2 fold change": -0.209}
{"sequence": "RRIRPRPPRLPRPRPRPKETPRP", "shrunken log2 fold change": 0.0101}
{"sequence": "RRIRIRPPRLPRPRPRPWVVPRP", "shrunken log2 fold change": -0.236}
{"sequence": "RRIRTRPPRLPRPRPRPSISPRP", "shrunken log2 fold change": -0.362}
{"sequence": "RRIRHRPPRLPRPRPRPASRPRP", "shrunken log2 fold change": 0.103}
{"sequence": "RRIRERPPRLPRPRPRPAKAPRP", "shrunken log2 fold change": 0.0877}
{"sequence": "RRIRPRPPRLPRPRPRPYQSPRP", "shrunken log2 fold change": -0.194}
{"sequence": "RRIRSRPPRLPRPRPRPGWRPRP", "shrunken log2 fold change": 0.923}
{"sequence": "RRIRSRPPRLPRPRPRPNHVPRP", "shrunken log2 fold change": -0.803}
{"sequence": "RRIRWRPPRLPRPRPRPKDDPRP", "shrunken log2 fold change": 0.553}
{"sequence": "RRIRIRPPRLPRPRPRPTSRPRP", "shrunken log2 fold change": -0.0459}
{"sequence": "RRIRHRPPRLPRPRPRPMRRPRP", "shrunken log2 fold change": 0.00585}
{"sequence": "RRIRVRPPRLPRPRPRPSRNPRP", "shrunken log2 fold change": -0.0696}
{"sequence": "RRIRTRPPRLPRPRPRPYEEPRP", "shrunken log2 fold change": -0.573}
{"sequence": "RRIRRRPPRLPRPRPRPSISPRP", "shrunken log2 fold change": -0.774}
{"sequence": "RRIRKRPPRLPRPRPRPLRWPRP", "shrunken log2 fold change": 1.37}
{"sequence": "RRIRRRPPRLPRPRPRPVDLPRP", "shrunken log2 fold change": 0.332}
{"sequence": "RRIRDRPPRLPRPRPRPIPPPRP", "shrunken log2 fold change": 0.239}
{"sequence": "RRIRTRPPRLPRPRPRPEPHPRP", "shrunken log2 fold change": 0.0668}
{"sequence": "RRIRYRPPRLPRPRPRPEFIPRP", "shrunken log2 fold change": -0.628}
{"sequence": "RRIRTRPPRLPRPRPRPKCMPRP", "shrunken log2 fold change": -0.134}
{"sequence": "RRIRGRPPRLPRPRPRPPNCPRP", "shrunken log2 fold change": 0.266}
{"sequence": "RRIRTRPPRLPRPRPRPCPDPRP", "shrunken log2 fold change": -0.283}
{"sequence": "RRIRWRPPRLPRPRPRPCMNPRP", "shrunken log2 fold change": 0.297}
{"sequence": "RRIRRRPPRLPRPRPRPCGFPRP", "shrunken log2 fold change": 0.265}
{"sequence": "RRIRSRPPRLPRPRPRPCPMPRP", "shrunken log2 fold change": -0.337}
{"sequence": "RRIRLRPPRLPRPRPRPYKAPRP", "shrunken log2 fold change": -0.112}
{"sequence": "RRIRKRPPRLPRPRPRPARYPRP", "shrunken log2 fold change": 0.513}
{"sequence": "RRIRNRPPRLPRPRPRPNMWPRP", "shrunken log2 fold change": -0.274}
{"sequence": "RRIRERPPRLPRPRPRPLTPPRP", "shrunken log2 fold change": -0.123}
{"sequence": "RRIRERPPRLPRPRPRPNCPPRP", "shrunken log2 fold change": -0.409}
{"sequence": "RRIRERPPRLPRPRPRPPNSPRP", "shrunken log2 fold change": -0.148}
{"sequence": "RRIRPRPPRLPRPRPRPNTAPRP", "shrunken log2 fold change": -0.23}
{"sequence": "RRIRGRPPRLPRPRPRPCRHPRP", "shrunken log2 fold change": 0.0672}
{"sequence": "RRIRPRPPRLPRPRPRPPYNPRP", "shrunken log2 fold change": -0.495}
{"sequence": "RRIRYRPPRLPRPRPRPFCWPRP", "shrunken log2 fold change": -0.212}
{"sequence": "RRIRQRPPRLPRPRPRPQTHPRP", "shrunken log2 fold change": -0.293}
{"sequence": "RRIRERPPRLPRPRPRPKLKPRP", "shrunken log2 fold change": -0.387}
{"sequence": "RRIRLRPPRLPRPRPRPFIYPRP", "shrunken log2 fold change": -0.504}
{"sequence": "RRIRARPPRLPRPRPRPKLCPRP", "shrunken log2 fold change": 0.225}
{"sequence": "RRIRHRPPRLPRPRPRPTTLPRP", "shrunken log2 fold change": -0.301}
{"sequence": "RRIRYRPPRLPRPRPRPHYPPRP", "shrunken log2 fold change": -1.84}
{"sequence": "RRIRFRPPRLPRPRPRPGTFPRP", "shrunken log2 fold change": -0.492}
{"sequence": "RRIRIRPPRLPRPRPRPDCMPRP", "shrunken log2 fold change": -0.106}
{"sequence": "RRIRIRPPRLPRPRPRPEAYPRP", "shrunken log2 fold change": 0.00489}
{"sequence": "RRIRWRPPRLPRPRPRPDGYPRP", "shrunken log2 fold change": -0.0244}
{"sequence": "RRIRNRPPRLPRPRPRPTMMPRP", "shrunken log2 fold change": 0.0241}
{"sequence": "RRIRLRPPRLPRPRPRPVQRPRP", "shrunken log2 fold change": 0.134}
{"sequence": "RRIRSRPPRLPRPRPRPFGAPRP", "shrunken log2 fold change": 0.162}
{"sequence": "RRIRKRPPRLPRPRPRPYVMPRP", "shrunken log2 fold change": -0.223}
{"sequence": "RRIRKRPPRLPRPRPRPWMDPRP", "shrunken log2 fold change": 0.0169}
{"sequence": "RRIRPRPPRLPRPRPRPDNMPRP", "shrunken log2 fold change": -0.337}
{"sequence": "RRIRERPPRLPRPRPRPVKGPRP", "shrunken log2 fold change": 0.0229}
{"sequence": "RRIRTRPPRLPRPRPRPEHRPRP", "shrunken log2 fold change": -0.0227}
{"sequence": "RRIRCRPPRLPRPRPRPQYDPRP", "shrunken log2 fold change": -0.644}
{"sequence": "RRIRARPPRLPRPRPRPKSNPRP", "shrunken log2 fold change": 0.253}
{"sequence": "RRIRTRPPRLPRPRPRPTMEPRP", "shrunken log2 fold change": -0.489}
{"sequence": "RRIRWRPPRLPRPRPRPERHPRP", "shrunken log2 fold change": 0.277}
{"sequence": "RRIRYRPPRLPRPRPRPWFAPRP", "shrunken log2 fold change": -0.497}
{"sequence": "RRIRPRPPRLPRPRPRPFRPPRP", "shrunken log2 fold change": -0.0197}
{"sequence": "RRIRRRPPRLPRPRPRPRADPRP", "shrunken log2 fold change": 0.461}
{"sequence": "RRIRTRPPRLPRPRPRPAKCPRP", "shrunken log2 fold change": 0.0582}
{"sequence": "RRIRTRPPRLPRPRPRPYQTPRP", "shrunken log2 fold change": -0.128}
{"sequence": "RRIRYRPPRLPRPRPRPAYKPRP", "shrunken log2 fold change": -0.14}
{"sequence": "RRIRGRPPRLPRPRPRPFWGPRP", "shrunken log2 fold change": 0.289}
{"sequence": "RRIRYRPPRLPRPRPRPEYNPRP", "shrunken log2 fold change": -0.15}
{"sequence": "RRIRHRPPRLPRPRPRPDRQPRP", "shrunken log2 fold change": -0.135}
{"sequence": "RRIRGRPPRLPRPRPRPGDEPRP", "shrunken log2 fold change": 1.81}
{"sequence": "RRIRERPPRLPRPRPRPTNVPRP", "shrunken log2 fold change": -0.387}
{"sequence": "RRIRARPPRLPRPRPRPCQHPRP", "shrunken log2 fold change": -0.274}
{"sequence": "RRIRLRPPRLPRPRPRPNQEPRP", "shrunken log2 fold change": 0.0423}
{"sequence": "RRIRARPPRLPRPRPRPRKEPRP", "shrunken log2 fold change": -0.0116}
{"sequence": "RRIRIRPPRLPRPRPRPAHKPRP", "shrunken log2 fold change": 0.0491}
{"sequence": "RRIRCRPPRLPRPRPRPREPPRP", "shrunken log2 fold change": 0.211}
{"sequence": "RRIRLRPPRLPRPRPRPFHPPRP", "shrunken log2 fold change": -0.0146}
{"sequence": "RRIRKRPPRLPRPRPRPGCVPRP", "shrunken log2 fold change": 1.16}
{"sequence": "RRIRNRPPRLPRPRPRPKTEPRP", "shrunken log2 fold change": -0.067}
{"sequence": "RRIRKRPPRLPRPRPRPWYPPRP", "shrunken log2 fold change": 0.00168}
{"sequence": "RRIRQRPPRLPRPRPRPRRAPRP", "shrunken log2 fold change": 0.79}
{"sequence": "RRIRMRPPRLPRPRPRPEHGPRP", "shrunken log2 fold change": 0.406}
{"sequence": "RRIRSRPPRLPRPRPRPHKSPRP", "shrunken log2 fold change": -0.414}
{"sequence": "RRIRYRPPRLPRPRPRPKFLPRP", "shrunken log2 fold change": -0.139}
{"sequence": "RRIRHRPPRLPRPRPRPYMPPRP", "shrunken log2 fold change": -0.402}
{"sequence": "RRIRMRPPRLPRPRPRPVAKPRP", "shrunken log2 fold change": 1.43}
{"sequence": "RRIRTRPPRLPRPRPRPNYTPRP", "shrunken log2 fold change": -0.753}
{"sequence": "RRIRERPPRLPRPRPRPDDTPRP", "shrunken log2 fold change": -0.0925}
{"sequence": "RRIRCRPPRLPRPRPRPENFPRP", "shrunken log2 fold change": -0.32}
{"sequence": "RRIRPRPPRLPRPRPRPVQYPRP", "shrunken log2 fold change": -0.0191}
{"sequence": "RRIRIRPPRLPRPRPRPQCWPRP", "shrunken log2 fold change": 0.203}
{"sequence": "RRIRGRPPRLPRPRPRPHYLPRP", "shrunken log2 fold change": -0.295}
{"sequence": "RRIRQRPPRLPRPRPRPITHPRP", "shrunken log2 fold change": -0.102}
{"sequence": "RRIRFRPPRLPRPRPRPCRDPRP", "shrunken log2 fold change": -0.274}
{"sequence": "RRIRKRPPRLPRPRPRPYRTPRP", "shrunken log2 fold change": -0.224}
{"sequence": "RRIRARPPRLPRPRPRPSANPRP", "shrunken log2 fold change": 0.344}
{"sequence": "RRIRPRPPRLPRPRPRPKLSPRP", "shrunken log2 fold change": 0.331}
{"sequence": "RRIRARPPRLPRPRPRPSHDPRP", "shrunken log2 fold change": 0.225}
{"sequence": "RRIRCRPPRLPRPRPRPMDTPRP", "shrunken log2 fold change": 0.0459}
{"sequence": "RRIRARPPRLPRPRPRPRQSPRP", "shrunken log2 fold change": 0.233}
{"sequence": "RRIRQRPPRLPRPRPRPWYWPRP", "shrunken log2 fold change": -0.468}
{"sequence": "RRIRKRPPRLPRPRPRPCGGPRP", "shrunken log2 fold change": 0.225}
{"sequence": "RRIRGRPPRLPRPRPRPCIFPRP", "shrunken log2 fold change": 0.426}
{"sequence": "RRIRVRPPRLPRPRPRPGCGPRP", "shrunken log2 fold change": 0.679}
{"sequence": "RRIRRRPPRLPRPRPRPQNAPRP", "shrunken log2 fold change": 0.0513}
{"sequence": "RRIRQRPPRLPRPRPRPVKGPRP", "shrunken log2 fold change": -0.0475}
{"sequence": "RRIRDRPPRLPRPRPRPTTFPRP", "shrunken log2 fold change": 0.0301}
{"sequence": "RRIRFRPPRLPRPRPRPNKPPRP", "shrunken log2 fold change": -0.00705}
{"sequence": "RRIRARPPRLPRPRPRPVMKPRP", "shrunken log2 fold change": -0.205}
{"sequence": "RRIRMRPPRLPRPRPRPASQPRP", "shrunken log2 fold change": 0.174}
{"sequence": "RRIRARPPRLPRPRPRPVDPPRP", "shrunken log2 fold change": 0.291}
{"sequence": "RRIRWRPPRLPRPRPRPWLGPRP", "shrunken log2 fold change": 0.00929}
{"sequence": "RRIRRRPPRLPRPRPRPNEMPRP", "shrunken log2 fold change": 0.245}
{"sequence": "RRIRFRPPRLPRPRPRPIVFPRP", "shrunken log2 fold change": -0.0906}
{"sequence": "RRIRHRPPRLPRPRPRPTSPPRP", "shrunken log2 fold change": -0.0524}
{"sequence": "RRIRRRPPRLPRPRPRPHYLPRP", "shrunken log2 fold change": -0.156}
{"sequence": "RRIRVRPPRLPRPRPRPFEMPRP", "shrunken log2 fold change": -0.572}
{"sequence": "RRIRRRPPRLPRPRPRPQELPRP", "shrunken log2 fold change": 0.158}
{"sequence": "RRIRYRPPRLPRPRPRPTCGPRP", "shrunken log2 fold change": 0.0163}
{"sequence": "RRIRTRPPRLPRPRPRPKFTPRP", "shrunken log2 fold change": -0.0912}
{"sequence": "RRIRQRPPRLPRPRPRPPYIPRP", "shrunken log2 fold change": -0.449}
{"sequence": "RRIRIRPPRLPRPRPRPNIHPRP", "shrunken log2 fold change": -0.936}
{"sequence": "RRIRFRPPRLPRPRPRPSLFPRP", "shrunken log2 fold change": -0.291}
{"sequence": "RRIRPRPPRLPRPRPRPNWQPRP", "shrunken log2 fold change": 0.131}
{"sequence": "RRIRLRPPRLPRPRPRPVYRPRP", "shrunken log2 fold change": -0.548}
{"sequence": "RRIRIRPPRLPRPRPRPKNKPRP", "shrunken log2 fold change": -0.68}
{"sequence": "RRIRPRPPRLPRPRPRPIMFPRP", "shrunken log2 fold change": -0.37}
